Test results from US20230110249A1 (University of California, published 2023).
Blank lines part the entries; values can stand above or below the binder they belong to.

Legend:
[1] = target: T1, human ROR1 protein (construct not stated) (human, UniProt Q01973 30-406, limits assumed); assay: method not stated (FIG. 12)
T1 construct: also called hROR1

[2] = target: T1, human ROR1 protein (construct not …); assay: method not stated (binding affinity; FIG. 12C)
[3] = target: recombinant human ROR1 protein with the mouse amino acid residue at position 138 (human, UniProt Q01973 30-406, limits assumed); assay: immunoblot after non-denaturing PAGE (FIG. 10)
Chain of recombinant human ROR1 protein with the mouse amino acid residue at position 138 (Q01973 30-406 E138K limits assumed): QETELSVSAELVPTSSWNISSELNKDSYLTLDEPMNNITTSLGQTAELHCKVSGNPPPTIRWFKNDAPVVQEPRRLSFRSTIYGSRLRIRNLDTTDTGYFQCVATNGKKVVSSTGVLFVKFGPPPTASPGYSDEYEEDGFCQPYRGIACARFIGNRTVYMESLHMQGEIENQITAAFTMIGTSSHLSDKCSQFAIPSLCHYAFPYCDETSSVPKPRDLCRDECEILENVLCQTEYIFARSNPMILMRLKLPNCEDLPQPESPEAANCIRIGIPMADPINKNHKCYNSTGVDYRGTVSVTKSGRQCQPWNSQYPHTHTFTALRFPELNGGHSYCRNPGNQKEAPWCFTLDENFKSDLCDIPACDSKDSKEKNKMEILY
Description: Constructs depicted in FIG. 6 were used to select high affinity recombinant antibodies. […] Human and chimeric ROR1-ex constructs were transfected into 293 cells. This allowed for production of recombinant human-mouse chimeric ROR1 proteins that could be size separated in a non-denaturing PAGE gel or SDS PAGE gel for immunoblot analysis with different anti-ROR1 mAb. […] The full human extracellular domain is provided on the far left lane of either gel (FIG. 11).

T1 sequence (Q01973 30-406 limits assumed): as the sequence (Q01973 30-406 E138K limits assumed) above, with K109E counted along it

fold higher binding affinity than D10 [1]: 50 fold
Kd [2]: 0.8 nM
binding result [3]: no binding
B1: anti-human ROR1 antibody 99961 (antibody, V domains shown)
VH: EIQLQQSGPVLVKPGASVKVSCKASGYAFTAYNIHWVRQSHGKRLEWIGSFDPYDGGSSYNQKFKDKATLTVDKSSTTAYMHLNSLTSEDSAVYYCARGWYYFDYWGHGTTLTVSS
VL: DVQITQSPSYLAASPGETITINCRASKSISKYLAWYQEKPGKTNKLLIYSGSTLQSGIPSRFRGSGSGTDFTLTISSLEPEDFAMYYCQQHDESPYTFGEGTKLEIK
notes: also called Ab9991

Kd [2]: 41 nM
B2: anti-ROR1 monoclonal antibody D10 (antibody, V domains shown)
VH: QVQLKESGPGLVAPSQTLSITCTVSGFSLTSYGVHWVRQPPGKGLEWLGVIWAGGFTNYNSALKSRLSISKDNSKSQVLLKMTSLQTDDTAMYYCARRGSSYSMDYWGQGTSVIVSS
VL: EIVLSQSPAITAASLGQKVTITCSASSNVSYIHWYQQRSGTSPRPWIYEISKLASGVPVRFSGSGSGTSYSLTISSMEAEDAAIYYCQQWNYPLITFGSGTKLEIQ
